Source: patent US20110165652A1, “COMPOSITIONS, METHODS AND SYSTEMS FOR SINGLE MOLECULE SEQUENCING” (LIFE TECHNOLOGIES CORPORATION, priority 2008, published 2011)

System: dATP-1-ROX
Assay: Primer extension by various polymerases with dATP-1-ROX or natural dATP
Assay type: biochemical
Conditions: dATP-1-ROX vs natural dATP, optimal temperature of each polymerase
Method: FIG. 6 depicts the results of experiments to assess the nucleotide incorporation efficiency of various DNA mutated and non-mutated polymerases (Sequenase; Thermo-Sequenase; wild-type Taq from Promega; HIV reverse transcriptase; and a mutant Taq polymerase comprising the mutation F647C) using both natural (unlabeled) dATP as well as the gamma-modified nucleotide dATP-1-Rox. Each reaction was conducted at the individual polymerase's optimal temperature with equimolar concentrations of enzymatically cleared gamma-labeled nucleotides and units of polymerase. […] Primer extension reactions were performed in the presence of the nucleotide dATP-1-ROX or natural dATP. The ‘Neg Control’ is a control lacking both polymerase and nucleotide. The extension products were size separated using denaturing gel electrophoresis, and visualized on a Bio-Rad fx Imager. Incorporation of the gamma-labeled nucleotide results in the production of a resolvable extension duplex that indicates incorporation of a single dATP. The non-extended primer is the lower band; extension products are more slowly migrating. […] FIG. 81 is a solid ribbon diagram generated in DS Viewer Pro of Taq DNA Polymerase.

B1: VTaq647C: engineered mutant Taq polymerase comprising the mutation F647C, SEQ. ID: 7 (protein, listed as Thermus aquaticus)
chain: ALEEAPWPPPEGAFVGFVLSRKEPMWADLLALAAARGGRVHRAPEPYKALRDLKEARGLLAKDLSVLALREGLGLPPGDDPMLLAYLLDPSNTTPEGVARRYGGEWTEEAGERAALSERLFANLWGRLEGEERLLWLYREVERPLSAVLAHMEATGVRLDVAYLRALSLEVAEEIARLEAEVFRLAGHPFNLNSRDQLERVLFDELGLPAIGKTEKTGKRSTSAAVLEALREAHPIVEKILQYRELTKLKSTYIDPLPDLIHPRTGRLHTRFNQTATATGRLSSSDPNLQNIPVRTPLGQRIRRAFIAEEGWLLVALDYSQIELRVLAHLSGDENLIRVFQEGRDIHTETASWMCGVPREAVDPLMRRAAKTINFGVLYGMSAHRLSQELAIPYEEAQAFIERYFQSFPKVRAWIEKTLEEGRRRGYVETLFGRRRYVPDLEARVKSVREAAERMAFNMPVQGTAADLMKLAMVKLFPRLEEMGARMLLQVHDELVLEAPKERAEAVARLAKEVMEGVYPLAVPLEVEVGIGEDWLSAKE
With B1 the “incorporation of gamma-labeled nucleotide” value was “significantly improved incorporation”.
